Assay results from publication PMC6292215 (Cell reports, 2018).

Molecular target: T1, full-length Human recombinant CHERP with an N-terminal HIS (human, UniProt Q8IWX8 1-916)
T1 sequence: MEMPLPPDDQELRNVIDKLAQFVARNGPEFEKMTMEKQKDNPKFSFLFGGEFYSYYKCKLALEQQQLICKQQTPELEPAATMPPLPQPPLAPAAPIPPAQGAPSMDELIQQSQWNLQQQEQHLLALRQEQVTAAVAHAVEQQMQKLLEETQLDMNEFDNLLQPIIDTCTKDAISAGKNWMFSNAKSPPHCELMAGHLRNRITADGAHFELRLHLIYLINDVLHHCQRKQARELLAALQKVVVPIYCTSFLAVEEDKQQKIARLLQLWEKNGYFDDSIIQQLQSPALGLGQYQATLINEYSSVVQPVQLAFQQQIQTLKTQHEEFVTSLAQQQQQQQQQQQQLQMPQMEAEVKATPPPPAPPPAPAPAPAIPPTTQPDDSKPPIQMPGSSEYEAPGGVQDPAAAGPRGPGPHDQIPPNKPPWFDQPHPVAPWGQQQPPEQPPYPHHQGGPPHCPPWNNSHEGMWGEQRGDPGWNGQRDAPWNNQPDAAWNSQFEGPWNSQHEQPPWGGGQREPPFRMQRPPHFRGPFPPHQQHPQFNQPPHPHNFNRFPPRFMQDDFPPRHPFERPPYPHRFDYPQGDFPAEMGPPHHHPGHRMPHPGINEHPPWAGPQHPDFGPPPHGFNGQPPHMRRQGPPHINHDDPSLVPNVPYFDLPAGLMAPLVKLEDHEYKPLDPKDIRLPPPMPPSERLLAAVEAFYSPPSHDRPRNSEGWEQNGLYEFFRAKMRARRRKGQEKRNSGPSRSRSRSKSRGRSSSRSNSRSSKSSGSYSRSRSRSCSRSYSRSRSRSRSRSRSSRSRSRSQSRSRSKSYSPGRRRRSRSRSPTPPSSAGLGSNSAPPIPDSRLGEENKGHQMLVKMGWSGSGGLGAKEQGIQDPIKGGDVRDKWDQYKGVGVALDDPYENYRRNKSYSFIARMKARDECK
Assay: pull-down

binding result: binds
B1: Full-length Human RBM17 recombinant protein with an N-terminal GST tag (natural protein)
chain: MSLYDDLGVETSDSKTEGWSKNFKLLQSQLQVKKAALTQAKSQRTKQSTVLAPVIDLKRGGSSDDRQIVDTPPHVAAGLKDPVPSGFSAGEVLIPLADEYDPMFPNDYEKVVKRQREERQRQRELERQKEIEEREKRRKDRHEASGFARRPDPDSDEDEDYERERRKRSMGGAAIAPPTSLVEKDKELPRDFPYEEDSRPRSQSSKAAIPPPVYEEQDRPRSPTGPSNSFLANMGGTVAHKIMQKYGFREGQGLGKHEQGLSTALSVEKTSKRGGKIIVGDATEKDASKKSDSNPLTEILKCPTKVVLLRNMVGAGEVDEDLEVETKEECEKYGKVGKCVIFEIPGAPDDEAVRIFLEFERVESAIKAVVDLNGRYFGGRVVKACFYNLDKFRVLDLAEQV
